Results taken from patent US20230203202A1 (DRAGONFLY THERAPEUTICS, published 2023).

What was measured:
[1] = biological target: T1, human 5T4 on the cell surface (human, UniProt Q13641 32-420); test: cell-based or functional assay
T1 sequence (looked up): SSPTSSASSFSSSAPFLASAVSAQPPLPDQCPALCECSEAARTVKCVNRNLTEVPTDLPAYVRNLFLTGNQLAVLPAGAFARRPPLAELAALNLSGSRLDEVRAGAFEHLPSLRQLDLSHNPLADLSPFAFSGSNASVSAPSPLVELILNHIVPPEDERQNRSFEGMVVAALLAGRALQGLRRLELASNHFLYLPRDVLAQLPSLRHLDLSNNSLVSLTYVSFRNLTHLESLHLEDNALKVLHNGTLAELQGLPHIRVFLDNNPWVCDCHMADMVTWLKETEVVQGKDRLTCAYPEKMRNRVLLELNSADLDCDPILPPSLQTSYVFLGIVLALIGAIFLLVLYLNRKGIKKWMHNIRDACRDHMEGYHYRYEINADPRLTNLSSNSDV

[2] = biological target: T1, human 5T4 on the cell surface; test: flow cytometry on FaDu cells (22,000 5T4 per cell)
Human CD16aV = biological target: T2, Human CD16aV (human, UniProt P08637 17-208); test: SPR, kinetics fit
T2 construct: position 158 counts on the mature protein

[3] = biological target: T3, human NKG2D (recombinant, construct not stated) (human, UniProt P26718 78-216, limits assumed); test: SPR, kinetics fit
T3 construct: also called hNKG2D
T3 sequence (looked up): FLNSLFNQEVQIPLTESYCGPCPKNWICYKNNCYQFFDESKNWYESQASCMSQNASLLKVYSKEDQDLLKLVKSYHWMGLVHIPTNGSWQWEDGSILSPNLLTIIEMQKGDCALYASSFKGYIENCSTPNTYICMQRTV

[4] = biological target: T1, human 5T4 on the cell surface; test: flow cytometry on 786-O cells (18,000 5T4 per cell)

T2 sequence (P08637 17-208 F176V): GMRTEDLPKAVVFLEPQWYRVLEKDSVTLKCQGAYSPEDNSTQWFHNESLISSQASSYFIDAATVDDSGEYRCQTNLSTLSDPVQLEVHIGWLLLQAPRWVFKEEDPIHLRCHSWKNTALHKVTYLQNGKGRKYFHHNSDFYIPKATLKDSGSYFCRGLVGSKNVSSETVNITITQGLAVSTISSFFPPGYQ

B1: AB1310/AB1783-TriNKET® (bispecific antibody, human IgG1, kappa)
chain: DIQLTQSPSSLSASVGDRVTITCRASQSVTTSNYNYMHWFQQKPGKAPKLLIKFASNLESGVPSRFSGSGSGTDFTLTISSLQPEDFATYYCQHSWEIPWTFGCGTKVEIKGGGGSGGGGSGGGGSGGGGSEVQLVESGGGLVKPGGSLRLSCAASRFTFSDFGMHWVRQAPGKCLEWVSYISSGSSTIYYADSVKGRFTISRDNAKNSLYLQMNSLRAEDTAVYYCASSQSYYRGTLDYWGQGTTVTVSSASDKTHTCPPCPAPELLGGPSVFLFPPKPKDTLMISRTPEVTCVVVDVSHEDPEVKFNWYVDGVEVHNAKTKPREEQYNSTYRVVSVLTVLHQDWLNGKEYKCKVSNKALPAPIEKTISKAKGQPREPRVYTLPPCRDELTKNQVSLTCLVKGFYPSDIAVEWESNGQPENNYKTTPPVLVSDGSFTLYSKLTVDKSRWQQGNVFSCSVMHEALHNHYTQKSLSLSPG
heavy: EVQLVESGGGLVKPGGSLRLSCAASGFTFSSYSMNWVRQAPGKGLEWVSSISSSSSYIYYADSVKGRFTISRDNAKNSLYLQMNSLRAEDTAVYYCARGAPIGAAAGWFDPWGQGTLVTVSSASTKGPSVFPLAPSSKSTSGGTAALGCLVKDYFPEPVTVSWNSGALTSGVHTFPAVLQSSGLYSLSSVVTVPSSSLGTQTYICNVNHKPSNTKVDKKVEPKSCDKTHTCPPCPAPELLGGPSVFLFPPKPKDTLMISRTPEVTCVVVDVSHEDPEVKFNWYVDGVEVHNAKTKPREEQYNSTYRVVSVLTVLHQDWLNGKEYKCKVSNKALPAPIEKTISKAKGQPREPQVCTLPPSRDELTENQVSLTCLVKGFYPSDIAVEWESNGQPENNYKTTPPVLDSDGSFFLYSWLTVDKSRWQQGNVFSCSVMHEALHNHYTQKSLSLSPG
light: DIQMTQSPSSVSASVGDRVTITCRASQGISSWLAWYQQKPGKAPKLLIYAASSLQSGVPSRFSGSGSGTDFTLTISSLQPEDFATYYCQQGVSFPRTFGGGTKVEIKRTVAAPSVFIFPPSDEQLKSGTASVVCLLNNFYPREAKVQWKVDNALQSGNSQESVTEQDSKDSTYSLSSTLTLSKADYEKHKVYACEVTHQGLSSPVTKSFNRGEC
notes: also called AB1310-TriNKET®; AB1783 10F10 F3′ LH H(T62S) CHO opt
NK cell-mediated lysis of 786-O cells (DELFIA), EC50 [1]: 0.19 nM | NK cell-mediated lysis of BT474 cells (DELFIA), EC50 [1]: 0.14 nM | NK cell-mediated lysis of Detroit 562 cells (DELFIA), EC50 [1]: 0.23 nM | NK cell-mediated lysis of FaDu cells (DELFIA), EC50 [1]: 0.19 nM | NK cell-mediated lysis of H292 cells (DELFIA), EC50 [1]: 0.1 nM | NK cell-mediated lysis of H1703 cells (DELFIA), EC50 [1]: 0.14 nM | NK cell-mediated lysis of H1975 cells (DELFIA), EC50 [1]: 0.29 nM | NK cell-mediated lysis of HCC4006 cells (DELFIA), EC50 [1]: 0.24 nM | NK cell-mediated lysis of HCT116 cells (DELFIA), EC50 [1]: 0.097 nM | NK cell-mediated lysis of HT29 cells (DELFIA), EC50 [1]: 0.42 nM | NK cell-mediated lysis of KYSE-30 cells (DELFIA), EC50 [1]: 0.072 nM | EC50 [2]: 7.1 nM | Kd (Human CD16aV): 112 nM | koff (Human CD16aV): 0.017 s⁻¹ | kon (Human CD16aV): 150000 M⁻¹ s⁻¹ | Kd [3]: 370 nM | koff [3]: 0.088 s⁻¹ | kon [3]: 240000 M⁻¹ s⁻¹ | EC50 [4]: 2.7 nM
